Experimental data as given in US20250197490A1, “ANTI-CORTICOTROPIN-RELEASING HORMONE ANTIBODIES AND USE IN CONGENITAL ADRENAL HYPERPLASIA” (HBM ALPHA THERAPEUTICS, INC., priority 2021, published 2025).

Tests used:
[1] = target: biotinylated CRH (human and mouse); assay: Octet in-tandem competition on captured CRH; row = 1st mAb (control hIgG1); competitor (2nd mAb) PR302334
[2] = target: biotinylated CRH (human and mouse); assay: Octet in-tandem competition on captured CRH; row = 1st mAb (control hIgG1); competitor (2nd mAb) PR302309-8
[3] = target: biotinylated CRH (human and mouse); assay: Octet in-tandem competition on captured CRH; row = 1st mAb (control hIgG1); competitor (2nd mAb) PR302341-34
[4] = target: biotinylated CRH (human and mouse); assay: Octet in-tandem competition on captured CRH; row = 1st mAb (control hIgG1); competitor (2nd mAb) PR303394
[5] = target: biotinylated CRH (human and mouse); assay: Octet in-tandem competition on captured CRH; row = 1st mAb (control hIgG1); competitor (2nd mAb) PR005660
[6] = target: biotinylated CRH (human and mouse); assay: Octet in-tandem competition on captured CRH; row = 1st mAb (control hIgG1); competitor (2nd mAb) PR301777
[7] = target: biotinylated CRH (human and mouse); assay: Octet in-tandem competition on captured CRH; row = 1st mAb (control hIgG1); competitor (2nd mAb) PR006669

Chain of biotinylated CRH (human and mouse) (P01143 145-185): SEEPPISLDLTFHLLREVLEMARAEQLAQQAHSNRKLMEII

% Inhibition [1]: 8%
% Inhibition [2]: 15%
% Inhibition [3]: 12%
% Inhibition [4]: 10%
% Inhibition [5]: 12%
% Inhibition [6]: 9%
% Inhibition [7]: 9%
Substance: unrelated human IgG1 (negative control) (antibody)
